Data on 1 molecule can be found in US20190247432A1 (published 2019).

This experiment addresses T1, NY-ESO-1 (the LAGE-1S transcript variant shares the same epitope) peptide on HLA-A*02:01 (human).
T1 peptide: SLLMWITQC
Description: multimer staining.

B1: 8F NY-ESO-1 TCR (TCR, V domains shown)
Valpha: EEDPQALSIQEGENATMNCSYKTSINNLQWYRQNSGRGLVHLILIRSNEREKHSGRLRVTLDTSKKSSSLLITASRAADTASYFCATDGAGKSTFGDGTTLTVKP
Vbeta: VIQSPRHEVTEMGQEVTLRCKPISGHDYLFWYRQTMMRGLELLIYFNNNVPIDDSGMPEDRFSAKMPNASFSTLKIQPSEPRDSAVYFCASTIGAQPQHFGDGTRLSIL
On to B1, for which the binding result is listed as “recognises”.
